Assay results: patent US20100075434A1 (NATIONAL UNIVERSITY CORPORATION TOKYO MEDICAL AND DENTAL …, published 2010)
Square brackets hold non-standard residues; d marks the D form. * marks the point of attachment. NBD = O=[N+]([O-])c1ccc(*)c2nonc12; Dap = NC[C@H](N)C(=O)O; ClAc = O=C(CCl)*

What was measured:
[1] = molecular target: T1, tag polypeptide of Example 1, structural formula (8) (not fully specified); assay: fluorescence titration, 0.5 µM probe in HEPES buffer
T1 construct: Chemically synthesized from two fragments (Chain A with the linker cysteine, Chain B) joined by native chemical ligation; also called A2
T1 peptide: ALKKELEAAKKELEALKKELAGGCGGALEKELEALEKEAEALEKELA
Description: (§1) In the fluorescence titration, the rate of change of the fluorescence intensity at 505 nm was plotted against the concentration of the tag peptide and the dissociation constant was calculated from a theoretical formula assuming 1 to 1 binding of the tag peptide to the probe peptide.
(§2) In FIG. 6, the horizontal axis represents the titer of the tag against the probe whereas the vertical axis represents the relative increase in fluorescence intensity when the fluorescence intensity detected for the probe alone at fluorescence wavelength of 505 nm is estimated as 1. […] In Example 1, the fluorescence intensity at 505 nm in the presence of 1 equivalent of tag peptide was 18 times as high as that measured in the absence of the tag peptide.

[2] = molecular target: T2, tag polypeptide of Example 2, structural formula (10); assay: as above
T2 construct: also called L2
T2 peptide: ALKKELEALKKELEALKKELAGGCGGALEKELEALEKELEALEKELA
Description: as §1, §2

[3] = molecular target: T3, tag polypeptide of Example 3, structural formula (11) (not fully specified); assay: as above
T3 construct: also called G2
T3 peptide: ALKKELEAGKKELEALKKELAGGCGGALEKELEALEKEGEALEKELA
Description: as §1, §2

[4] = molecular target: T1, tag polypeptide of Example 1, …; assay: fluorescence titration, tag added to 0.5 µM probe in HEPES buffer, 505 nm, 1:1 model
Description: as §1, §2

[5] = molecular target: T2, tag polypeptide of Example 2, …; assay: as above
Description: as §1, §2

[6] = molecular target: T3, tag polypeptide of Example 3, …; assay: as above
Description: as §1, §2

[7] = molecular target: T4, fused protein of DsRed and PKC having at its N terminal end a tag polypeptide of sequence (A) (Homo sapiens (Human), UniProt Q05655 1-676); assay: fluorescence microscopy of permeabilized CHO.K1 cells, 1 µM probe, NBD against DsRed localization with and without PDBu
T4 construct: Expressed in the cytoplasm of CHO.K1 cells, which were permeabilized with saponin before the probe was added; also called tag-fused PKC
T4 sequence (Q05655 other isoform, or with tags, fused parts or gaps limits assumed): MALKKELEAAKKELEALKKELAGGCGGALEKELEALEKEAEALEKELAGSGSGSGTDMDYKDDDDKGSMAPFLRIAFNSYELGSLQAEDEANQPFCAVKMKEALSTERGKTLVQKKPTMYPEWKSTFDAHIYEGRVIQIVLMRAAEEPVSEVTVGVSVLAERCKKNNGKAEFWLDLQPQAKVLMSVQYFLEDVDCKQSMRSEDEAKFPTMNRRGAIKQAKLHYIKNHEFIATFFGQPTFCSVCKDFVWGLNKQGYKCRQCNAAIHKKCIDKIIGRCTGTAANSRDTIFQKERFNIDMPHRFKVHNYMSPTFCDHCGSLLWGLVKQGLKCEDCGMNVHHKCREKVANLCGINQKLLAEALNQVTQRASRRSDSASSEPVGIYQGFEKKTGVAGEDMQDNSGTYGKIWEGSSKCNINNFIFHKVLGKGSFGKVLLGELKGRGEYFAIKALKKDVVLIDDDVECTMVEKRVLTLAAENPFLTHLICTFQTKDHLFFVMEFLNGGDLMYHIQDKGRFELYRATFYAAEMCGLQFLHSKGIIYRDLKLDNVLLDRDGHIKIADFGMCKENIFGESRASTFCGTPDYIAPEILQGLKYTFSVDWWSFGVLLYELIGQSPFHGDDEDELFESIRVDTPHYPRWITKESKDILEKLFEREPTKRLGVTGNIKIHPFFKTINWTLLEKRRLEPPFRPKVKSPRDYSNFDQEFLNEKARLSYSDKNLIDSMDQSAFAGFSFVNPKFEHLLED
Description: Subsequently, a permeabilization buffer (20 mM Hepes, pH 7.4, 140 mM KCl, 50 μg/mL saponin, 5 mM oxalic acid) was added to the thus-prepared CHO.K1 cells. After left to stand on ice for 10 min, the cells were washed with PBS, followed by incubating on ice for 20 min in PBS. Thereafter, the cells were incubated in PBS at room temperature for 2 min and then 37° C. for 2 min. Further, the cells were incubated at 37° C. for 30 min in a conditioned medium (Ham's F12) to which a probe indicated by sequence (B) (probe concentration: 1 μM (Final conc.)) had been added.
Separately, before treated with the permeabilization buffer, the above-prepared CHO.K1 cells were treated for 10 min with 10 mM DMSO containing PDBu (phorbol 12,13 dibutyrate; final concentration: 10 μM). The cells were observed by the fluorescence microscope similar to the above.
The following was used as a control; a group which was not treated with PDBu, and CHO.K1 cells to which only DIC was introduced (note that DIC is a vector used for introducing into cells the above-mentioned fused protein of DsRed and PKC having at its N terminal end a tag polypeptide indicated by sequence (A). The cells were observed as mentioned above at predetermined wavelength (515 nm to 560 nm). The results are shown in FIG. 11.

B1: probe polypeptide of Example 1, structural formula (9) (peptide)
peptide: Ac-ALKKKLEALKKK[Dap](NBD)EALKKKLA-NH2
SMILES: CC(=O)N[C@@H](C)C(=O)N[C@@H](CC(C)C)C(=O)N[C@@H](CCCCN)C(=O)N[C@@H](CCCCN)C(=O)N[C@@H](CCCCN)C(=O)N[C@@H](CC(C)C)C(=O)N[C@@H](CCC(=O)O)C(=O)N[C@@H](C)C(=O)N[C@@H](CC(C)C)C(=O)N[C@@H](CCCCN)C(=O)N[C@@H](CCCCN)C(=O)N[C@@H](CCCCN)C(=O)N[C@@H](CNc1ccc([N+](=O)[O-])c2nonc12)C(=O)N[C@@H](CCC(=O)O)C(=O)N[C@@H](C)C(=O)N[C@@H](CC(C)C)C(=O)N[C@@H](CCCCN)C(=O)N[C@@H](CCCCN)C(=O)N[C@@H](CCCCN)C(=O)N[C@@H](CC(C)C)C(=O)N[C@@H](C)C(N)=O
notes: the text says (9); also called L-NBD; probe peptide
**Q.** B1 was tested. Which “equivalents of tag peptide at which the change in fluorescence saturates” value [1] did it give?
**A.** The value was 1 equivalent.

**Q.** And the “fold increase of fluorescence intensity at 505 nm with 1 equivalent of tag peptide against probe alone” value [1]?
**A.** The value was 18 times.

**Q.** What about the “equivalents of tag peptide at which the change in fluorescence saturates” value [2] of the same binder?
**A.** The value was 1 equivalent.

**Q.** What about the “equivalents of tag peptide at which the change in fluorescence saturates” value [3] of the same binder?
**A.** Its value is 1 equivalent.

**Q.** And the Kd [4]?
**A.** Its Kd is 17.5 nM.

**Q.** And the Kd [5]?
**A.** Its Kd is 24.3 nM.

**Q.** What about the Kd [6] of the same binder?
**A.** The Kd was 755 nM.

**Q.** Does ClAc-GALKKKLEALKKK[Dap](NBD)EALKKKLA-NH2 (also called ClAc-G probe) [probe peptide for crosslink reaction, structural formula (12)] bind [7]?
**A.** Result: binds
